Here are results for five molecules from PMC7994586, “The box C/D snoRNP assembly factor Bcd1 interacts with the histone chaperone Rtt106 and controls its transcription dependent activity” (Nature Communications, 2021).

The labels stand for the following.
B2: recombinant fragment Rtt106p-M (Rtt106p_(65-320)), purified (domain or fragment, S. cerevisiae, UniProt P40161 65-320, looked up)
chain: DEISETNTIFKLEGVSVLSPLRKKLDLVFYLSNVDGSPVITLLKGNDRELSIYQLNKNIKMASFLPVPEKPNLIYLFMTYTSCEDNKFSEPVVMTLNKENTLNQFKNLGLLDSNVTDFEKCVEYIRKQAILTGFKISNPFVNSTLVDTDAEKINSFHLQCHRGTKEGTLYFLPDHIIFGFKKPILLFDASDIESITYSSITRLTFNASLVTKDGEKYEFSMIDQTEYAKIDDYVKRKQMKDKSMSEELKAKSKSKG
notes: Rtt106p, yeast, residues 65-320 (tandem PH1 and PH2 domains); Native MS mass 29,695 Da; also called 65-320 (M) domain of Rtt106p
B4: recombinant Bcd1pFL, purified (natural protein, S. cerevisiae, UniProt P38772 1-366, looked up)
chain: MAVLCGVCGIKEFKYKCPRCLVQTCSLECSKKHKTRDNCSGQTHDPKEYISSEALKQADDDKHERNAYVQRDYNYLTQLKRMVHVQKMDARMKNKRVLGPVGGHNSNFKKRRYDIDEDDRDSTECQRIIRRGVNCLMLPKGMQRSSQNRSKWDKTMDLFVWSVEWILCPMQEKGEKKELFKHVSHRIKETDFLVQGMGKNVFQKCCEFYRLAGTSSCIEGEDGSETKEERTQILQKSGLKFYTKTFPYNTTHIMDSKKLVELAIHEKCIGELLKNTTVIEFPTIFVAMTEADLPEGYEVLHQEPRPLEHTSTLNKFIDNAREEEDAEEDSQPTEEPVQKETQDASDSDSDSDDDYNPGLSMDFLTA
notes: Bcd1p, S. cerevisiae, full length; Detected by native MS with two zinc ions (42,752 Da); also called Bcd1FL; full-length Bcd1p

Where no end group is shown, it is not given here.

In assay [1] the target is T1, Rtt106p_(65-301) bound to Bcd1p_(120-303) (S. cerevisiae, UniProt P40161 65-301; P38772 120-303).
T1 construct: Rtt106p, yeast, residues 65-301; as the chain of m19; as the chain of m18; Formed before titration with the H3K56ac peptide; source: E. coli BL21 pRARE2, purified proteins, mixed; not shown: His6, N-terminal, cleaved; copies: 1 + 1
T1 sequence (looked up) 1: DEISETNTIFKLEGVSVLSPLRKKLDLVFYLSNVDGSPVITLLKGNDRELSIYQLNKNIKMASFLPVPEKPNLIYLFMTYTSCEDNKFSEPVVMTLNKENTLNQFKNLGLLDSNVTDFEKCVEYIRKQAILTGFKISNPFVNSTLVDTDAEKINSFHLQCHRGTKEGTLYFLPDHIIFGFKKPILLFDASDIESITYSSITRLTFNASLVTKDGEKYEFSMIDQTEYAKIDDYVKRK
T1 sequence (looked up) 2: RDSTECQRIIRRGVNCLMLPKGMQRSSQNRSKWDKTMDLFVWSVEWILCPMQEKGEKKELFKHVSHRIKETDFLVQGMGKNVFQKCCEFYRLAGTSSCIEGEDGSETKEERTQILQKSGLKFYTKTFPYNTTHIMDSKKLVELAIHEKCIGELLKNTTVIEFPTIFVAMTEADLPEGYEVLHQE
Kind of assay: ITC; H3K56ac peptide (2 mM) as the titrant into 200 μM Rtt106p_(65-301) with or without Bcd1p_(120-303). The settings on record: both partners purified. (In ITC the heat of successive injections is recorded.)

Assay [2] concerns the target T2, Rtt106p_(65-301) (S. cerevisiae, UniProt P40161 65-301).
T2 construct: Rtt106p, yeast, residues 65-301 (tandem PH domains); also called Rtt106_(65-301); source: E. coli BL21 pRARE2, purified
T2 sequence (looked up): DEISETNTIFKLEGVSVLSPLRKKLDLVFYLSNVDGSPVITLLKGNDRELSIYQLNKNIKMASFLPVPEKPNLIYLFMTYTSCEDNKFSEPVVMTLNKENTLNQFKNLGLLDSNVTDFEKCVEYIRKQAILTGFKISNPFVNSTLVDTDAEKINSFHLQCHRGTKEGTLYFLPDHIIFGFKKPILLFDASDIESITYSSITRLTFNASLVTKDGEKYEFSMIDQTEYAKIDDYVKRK
Described as above. The following applies: both partners purified.

In assay [3] the target is T3, Rtt106p_(65-301) bound to Bcd1p_(120-303) (S. cerevisiae, UniProt P40161 65-301; P38772 120-303).
T3 chain 1: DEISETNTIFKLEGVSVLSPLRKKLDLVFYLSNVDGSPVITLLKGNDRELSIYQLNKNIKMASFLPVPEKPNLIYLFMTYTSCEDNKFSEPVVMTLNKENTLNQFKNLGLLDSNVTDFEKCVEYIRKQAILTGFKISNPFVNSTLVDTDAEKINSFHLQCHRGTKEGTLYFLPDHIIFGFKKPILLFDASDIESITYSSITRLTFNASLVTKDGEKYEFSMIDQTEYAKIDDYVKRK
T3 chain 2: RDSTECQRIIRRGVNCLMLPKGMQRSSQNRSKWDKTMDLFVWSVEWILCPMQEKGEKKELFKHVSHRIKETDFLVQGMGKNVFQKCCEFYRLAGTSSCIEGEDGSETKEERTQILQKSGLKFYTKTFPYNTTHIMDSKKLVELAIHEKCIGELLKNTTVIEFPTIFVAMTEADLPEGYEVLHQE
Kind of assay: ITC.

The target of assay [4] is T4, Rtt106p_(65-301) (S. cerevisiae, UniProt P40161 65-301).
T4 chain: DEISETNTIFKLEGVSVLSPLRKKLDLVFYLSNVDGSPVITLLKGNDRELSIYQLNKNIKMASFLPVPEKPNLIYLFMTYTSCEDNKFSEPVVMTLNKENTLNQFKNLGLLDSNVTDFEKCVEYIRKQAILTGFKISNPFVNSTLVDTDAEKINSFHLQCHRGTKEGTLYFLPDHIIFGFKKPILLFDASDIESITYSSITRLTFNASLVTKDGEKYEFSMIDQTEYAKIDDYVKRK
The assay can be described thus: ITC.

Assay [5] concerns the target B4. Kind of assay: ITC; 293 K, 10 mM NaPi pH 7.5, 150 mM NaCl, 0.5 mM TCEP; 40 μM titrated, 400 μM titrant. The settings on record: both partners purified.
Assay [6] deals with T5, recombinant fragment Rtt106p-M (Rtt106p_(65-320)), purified (S. cerevisiae, UniProt P40161 65-320).
T5 chain: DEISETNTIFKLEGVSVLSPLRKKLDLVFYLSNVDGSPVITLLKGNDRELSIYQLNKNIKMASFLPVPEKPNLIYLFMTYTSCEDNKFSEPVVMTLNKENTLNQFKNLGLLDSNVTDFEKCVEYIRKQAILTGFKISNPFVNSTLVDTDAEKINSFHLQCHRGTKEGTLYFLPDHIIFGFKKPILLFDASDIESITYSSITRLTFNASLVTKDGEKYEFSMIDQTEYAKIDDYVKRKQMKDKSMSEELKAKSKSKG
Kind of assay: ITC.

The target in assay [7] is T2, Rtt106p_(65-301). The assay can be described thus: ITC; 293 K, 10 mM NaPi pH 7.5, 150 mM NaCl, 0.5 mM TCEP; 40 μM titrated, 400 μM titrant. The settings on record: both partners purified.
Assay [8] addresses B2. The assay can be described thus: native MS; individual partners and co-purified complex in 150 mM ammonium acetate pH 7.5, nanoESI, nondenaturing conditions. The settings on record: both partners purified.

B1: H3K56ac (IRRFQKacSTELL) peptide (peptide)
peptide: IRRFQK(Ac)STELL
notes: histone H3 stretch around lysine 56, acetylated at K56; also called acetylated peptide; source: synthetic peptide, bought: Proteogenix
For B1, the binding result in assay [1] and in assay [2] was “binds” throughout. Moreover, the Kd – broadly, the free concentration of one partner at which half of the binding sites on the other are occupied at equilibrium, for simple one-to-one binding – in assay [3] stood at 649 µM; in assay [4] it was 714 µM.
On to B2, for which the Kd in assay [5] came to 1.17 ± 0.17 µM.

B3: Bcd1p_(120-303) (domain or fragment, S. cerevisiae, UniProt P38772 120-303, looked up)
chain: RDSTECQRIIRRGVNCLMLPKGMQRSSQNRSKWDKTMDLFVWSVEWILCPMQEKGEKKELFKHVSHRIKETDFLVQGMGKNVFQKCCEFYRLAGTSSCIEGEDGSETKEERTQILQKSGLKFYTKTFPYNTTHIMDSKKLVELAIHEKCIGELLKNTTVIEFPTIFVAMTEADLPEGYEVLHQE
notes: Tag removal is told for the NMR preparation; the preparation for ITC is not described separately; source: E. coli BL21 pRARE2, purified (TALON, PreScission cleavage, gel filtration); not shown: His6, N-terminal, cleaved
In the case of B3, the Kd in assay [4] was found to be 1.63 µM; in assay [6], 1.16 µM; in assay [7] it was 0.94 ± 0.06 µM.
B4: the stoichiometry N – broadly, a count of units in the complex or per binding partner – in assay [8] was 1.

B5: Bcd1p120-366 (protein)
chain: RDSTECQRIIRRGVNCLMLPKGMQRSSQNRSKWDKTMDLFVWSVEWILCPMQEKGEKKELFKHVSHRIKETDFLVQGMGKNVFQKCCEFYRLAGTSSCIEGEDGSETKEERTQILQKSGLKFYTKTFPYNTTHIMDSKKLVELAIHEKCIGELLKNTTVIEFPTIFVAMTEADLPEGYEVLHQEPRPLEHTSTLNKFIDNAREEEDAEEDSQPTEEPVQKETQDASDSDSDSDDDYNPGLSMDFLTA
Turning to B5, the Kd in assay [6] is 1.74 µM.
